Data set [1] can be described thus: Quantum yield determination. It is filed as physicochemical. Conditions: Table 5; in PBS. The essentials: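 Relative quantum yields in PBS, probe absorbance adjusted below 0.1, references IR-783 (0.043), fluorescein (0.18), Cy3 (0.31). Excitation/emission ranges: PN(783) 730 nm/765–870 nm; PN(545) 515 nm/538–700 nm; PN(497) 450 nm/475–620 nm, maximum emission used. Triplicate, mean±SD.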

The subject of data set [2] is mCherry/HT29 tumor sections. The data set is described as follows: Confocal microscopy of tumor sections (tumor retention phase). Type of data set: in vivo, mouse. Conditions: 48 hours post IV injection. On the procedure: The mCherry-HT-29 tumor sample was collected at 48 hours post IV injection with PN(497)10.0, and then cryosectioned with thickness of 5 μm. The tumor section was fixed with 4% PFA, mounted with 90% glycerol/10% PBS (at pH 8.5 for best fluorescein fluorescence), and stained with DAPI. Confocal imaging was performed on a Zeiss LSM510 laser scanning confocal microscope (Zeiss Axiophot, Carl Zeiss, Jena, Germany). A 405 nm diode Laser, 488 nm argon laser, and 561 nm diode laser were used for the excitation of DAPI, fluorescein, and mCherry, respectively. A primary dichroic HFT 405/488/561 was used in combination with an LP420 emission filter for DAPI, BP505-530 for fluorescein, and LP575 for mCherry. Images were analyzed with ImageJ64.

A short description of data set [3]: PN and peptide size (volume, diameter) by FPLC gel filtration (Superdex 200, globular protein standards). It is filed as physicochemical. Conditions: Table 5; globular protein equivalent molecular weight. On the procedure:
DOTA-Lys-Cys(IR783)-NH2 is then dissolved in DMSO, with 2 equivalents of an NHS ester of PEG and 6 equivalents of DIPEA. The reaction was at room temperature for 5 days. Product was purified by reverse phase HPLC separation. Product molecular weight was by matrix-assisted laser desorption ionization time-of-flight mass spectrometry (MALDI-TOF MS), with product molecular volume by size exclusion FPLC using globular protein standards (GE Healthcare life science AKTApurifier 10).
The mass spec of low molecular weights (MW) were obtained by MS-ESI Micromass (Waters) and high MW molecules were determined through MALDI-TOF analyses at the Tufts University Core Facility. RP-HPLC (Varian ProStar detector and delivery modules) employed an eluant A (0.1% TFA/water) and eluant B (0.1% TFA and 9.9% water in acetonitrile). Probe size (volume) was determined by FPLC using an ÄKTA Purifier 10 and Superdex™ 200 10/300GL column (GE Healthcare) with a running buffer of 0.05 M sodium phosphate, 0.15 M NaCl (0.1% Tween, pH 7.2) and flow rate of 0.8 ml/min. Standards (GE Healthcare) were Ferritin, Ribonuclease A, Carbonic Anhydrase, and Conalbumin and Blue Dextran 2000. To obtain probe volumes, Mr (apparent molecular weight based on size exclusion retention) was plotted versus Kav. Kav=(Ve−Vo)/(Vt−Vo), Vt=total volume, Ve=elution volume, Vo=void volume.
The column was calibrated with globular protein standards, and globular protein equivalent molecular weights (in kDa) were obtained (Table 5, column 5). These were converted to PN diameters in nm using the relationship: Radius in nm=[…] where M is the molecular weight of a globular protein expressed in daltons (see Erickson, “Size and Shape of Protein Molecules at the Nanometer Level Determined by Sedimentation, Gel Filtration, and Electron Microscopy”, Biological Procedures Online 2009, 11(1): 32-50). PN's diameters ranged from 3.0 to 11.8 nm (see FIG. 23a). Using PEG's of 5 kDa and 30 kDa, selected for their low polydispersity, PN's were synthesized using IR-783, Cy3 and Fluorescein (see FIG. 22a) and their sizes determined (see FIGS. 23a, 23b, 23c). With the 5 kDa PEG and these three fluorochromes (see the magenta chromatograms in FIGS. 22a, 23b and 23c) PN diameters were 4.3 nm. With the 30 kDa PEG and these three fluorochromes (blue chromatograms, 23a, 23b, 23c), PN diameters were now 10.0 nm. For reference, the diameter of a 67 kDa albumin determined by this method was 5.4 nm.

In data set [4] the test system is HT-29, a human colon carcinoma cell line. Put plainly: PN and peptide binding to cells (non-specific binding, FACS). Type of data set: cell-based. Conditions: HT-29 cells, 30 min at 37° C., FACS. On the procedure: HT-29, a human colon carcinoma cell line, was from the American Tissue Culture Collection and maintained according to their instructions. Cells were seeded on 24-well plates at 5×10^5 cells/well in culture medium (RPMI 1640 with 10% FBS) the day before the assay. The day of assay, medium was removed, wells rinsed twice with DPBS (+Ca, +Mg), and 100 μl of 2% FBS/DPBS (+Ca, +Mg) added. 100 μL of Nanoprobes (2 μM) in DPBS (+Ca, +Mg) was added to cells and incubated for 30 min at 37° C. (Probe concentrations were determined spectrophotometrically (783 nm, extinction coefficient of 314 471 cm^−1 M^−1 for IR-783; 497 nm, extinction coefficient of 68 000 cm^−1 M^−1 for Fluorescein; 545 nm, extinction coefficient of 150 000 cm^−1 M^−1 for Cy3). Cells were detached by Trypsin/EDTA and assayed for fluorescence by FACS (BD 7 laser LSR2 for nanoprobes with IR-783; BD 3 laser LSR2 for nanoprobes with Fluorescein or Cy3).

The source of these data is patent US20150258217A1, “Methods of Synthesizing and Using Peg-Like Fluorochromes” (THE GENERAL HOSPITAL CORPORATION, priority 2012, published 2015).

For “(DOTA)Lys(PEG30K)-Cys(Cy3) [PN(545)10.0]”, the “Quant. Yield” value in data set [1] amounted to 0.61. For the same substance, the “cellular localisation in tumor sections” value in data set [2] was “seen in mCherry/HT29 cells”. Besides, the “Volume FPLC” value in data set [3] worked out at 435 kDa. Besides, in data set [4], the “Cell NSB (percent of cells with fluorescence higher than unstained cell)” value is listed as 15%.
